The text below walks through data of patent publication US6962971B2, “Chemokines and methods for inducing the differentiation of fibroblasts to myofibroblasts” (The Regents of the University of California, priority 2001, dated 2005).

Assay [1] has as its system α-SMA. As to the kind of experiment: Immunostaining for α-SMA in fibroblast cultures and collagen gel sections. Type of assay: cell-based, chicken. On the procedure: Plates of fibroblasts were treated with cCAF as described previously. After 4 days, the cells were rinsed with PBS, fixed in 4% paraformaldehyde, permeabilized with 0.15% Triton X-100 and incubated with PBS containing 0.1M glycine for 10 min. Cells were blocked for 30 min with 10% goat serum in PBS, incubated with mouse anti-α-SMA, to a final IgG concentration of 20 μg/ml, in 1% BSA/PBS for 1hr at room temperature (RT), and washed three times with 0.1% BSA/PBS for 10 min each. The cells were then incubated in goat anti-mouse FITC or sheep anti-mouse Texas Red (1:100) in 1% BSA/PBS for 1 hr at RT, washed three times for 10 min with 0.1% BSA in PBS and mounted with Vectashield. Collagen gels were rinsed with PBS, fixed in 4% paraformaldehyde for 2 hr, washed three times 30 min each with PBS, and incubated for an additional 30 min in PBS containing 0.1M glycine. This treatment was followed by incubation at 4° C. overnight in 15% sucrose and then incubated under the same conditions in 30% sucrose. After a brief rinse with PBS, the gels were frozen in OCT, sections prepared and collected on gelatin-coated slides, rinsed with PBS, fixed in 4% paraformaldehyde for 10 min, and then incubated again in PBS containing 0.1M glycine for 10 min. This was followed by blocking for 30 min with 10% goat serum in PBS, incubation in primary and secondary antibody as described above, and mounting with Vectashield.

The test system of assay [2] is α-SMA. As to the kind of experiment: Immunoblotting for α-SMA in fibroblast extracts. It counts as cell-based, chicken. As to conditions: 750 ng/ml; versus untreated or C-peptide treated cells. On the procedure:
Plates of fibroblasts were treated as described previously, with 750 ng/ml cCAF or 2.5 ng/ml TGFβ. To block TGFβ, or cCAF activity, anti-cCAF (3 μl) or anti-TGFβ (1 μl) antibody was pre-incubated in 1 ml media for 1 hr at room temperature before being added to cells. After 4 days of treatment, protein extracts were prepared in 1 ml 150 mM RIPA buffer containing protease inhibitors. Protein concentrations were determined using the DC protein assay kit and samples were adjusted to contain equal amounts of protein. SDS-PAGE was performed on 7.5% separating Doucet gels (Doucet and Trifaro, 1988). Protein transfer to nitrocellulose was performed using a wet-transfer apparatus (Bio-Rad) at 100V for 45 min. The membranes were blocked for 1 hr in 5% milk in TTBS and then incubated overnight at 4° C. in mouse anti-α-SMA, to a final IgG concentration of 5 μg/ml, in 1% milk in TTBS. The membranes were washed 3 times for 20 min each with TTBS, incubated in anti-mouse HRP at 1:10,000 in 1% milk for 1hr and washed as above, and the bands visualized using the ECL.
(In general: In western blotting, separated proteins are transferred to a membrane and probed.)

In assay [3] the test system is chicken CXC receptor 1 (CXCR1). As to the kind of experiment: Chicken cCXCR1-mediated calcium release. Type of assay: cell-based. The note with it: 400 ng. The procedure:
NIH #373 cells overexpressing the chicken CXC receptor 1 (CXCR1) were exposed to the full-length cCAF molecule, the 15-amino N-terminal peptide of cCAF, or the 28-amino acid C-terminal peptide and calcium release was then measured.

Assay [4] deals with chicken chorioallantoic membrane (CAM). As to conditions: cited from earlier work.

“Also recorded” adds a separate entry of the source.

B1: cCAF: CXC chemokine chicken Chemotactic and Angiogenic Factor, full-length, SEQ ID NO:2; purified or synthesized (protein)
chain: LSQGRTLVKMGNELRCQCISTHSKFIHPKSIQDVKLTPSGPHCKNVEIIATLKDGREVCLDPTAPWVQLIVKALMAKAQLNSDAPL
modifications: Gallusgallus
notes: purified or synthesized
Consider B1, for which, in assay [1] (versus control gels), the “α-SMA immunolabeling of sections of fibroblast-seeded collagen gels” value was “more cells with fibers staining for α-SMA than control gels”. The “α-SMA immunolabeling of cultured fibroblasts” value in assay [1] (versus untreated control cells) was “more fibroblasts are stained for α-SMA; also recorded: many more cells showing intense staining for fiber bundles”. The “α-SMA levels by immunoblot” value in assay [2] is given as “much higher levels of α-SMA; also recorded: increased levels of α-SMA”. Moreover, the “time to calcium release” value in assay [3] was ≤ 1 min. For the same molecule, the calcium release result in assay [3] (NIH #373 cells overexpressing chicken CXCR1) was “induced a rapid (within 1 min.) release of calcium”. The “angiogenesis in the CAM” value in assay [4] (high concentrations, in the absence of leukocyte chemotaxis) was “stimulates blood vessel sprouting from the preexisting vessels of the CAM”. Besides, the “leukocyte chemotaxis in the CAM” value in assay [4] (low doses) was “chemotactic for monocyte/macrophages and lymphocytes”.
